Experimental data from publication PMC8931054, “Structure-guided unlocking of NaX reveals a non-selective tetrodotoxin-sensitive cation channel” (Nature Communications, 2022).

Target: T1, human NaX channel (human, UniProt Q01118 1-1682)
T1 construct: Full-length human NaX (sodium channel protein type 7 subunit alpha, gene SCN7A), cloned into a pRK vector behind a CMV promoter; Co-expressed and co-purified with untagged β3; No removal of the tags is described; also called SCN7A; source: Expi293 cells, co-transfected with β3, purified (anti-FLAG M2 agarose, Strep-Tactin XT, Superose 6); not shown: 2xStrepII, N-terminal, kept; 2xFLAG, …
T1 sequence (Q01118 whole entry): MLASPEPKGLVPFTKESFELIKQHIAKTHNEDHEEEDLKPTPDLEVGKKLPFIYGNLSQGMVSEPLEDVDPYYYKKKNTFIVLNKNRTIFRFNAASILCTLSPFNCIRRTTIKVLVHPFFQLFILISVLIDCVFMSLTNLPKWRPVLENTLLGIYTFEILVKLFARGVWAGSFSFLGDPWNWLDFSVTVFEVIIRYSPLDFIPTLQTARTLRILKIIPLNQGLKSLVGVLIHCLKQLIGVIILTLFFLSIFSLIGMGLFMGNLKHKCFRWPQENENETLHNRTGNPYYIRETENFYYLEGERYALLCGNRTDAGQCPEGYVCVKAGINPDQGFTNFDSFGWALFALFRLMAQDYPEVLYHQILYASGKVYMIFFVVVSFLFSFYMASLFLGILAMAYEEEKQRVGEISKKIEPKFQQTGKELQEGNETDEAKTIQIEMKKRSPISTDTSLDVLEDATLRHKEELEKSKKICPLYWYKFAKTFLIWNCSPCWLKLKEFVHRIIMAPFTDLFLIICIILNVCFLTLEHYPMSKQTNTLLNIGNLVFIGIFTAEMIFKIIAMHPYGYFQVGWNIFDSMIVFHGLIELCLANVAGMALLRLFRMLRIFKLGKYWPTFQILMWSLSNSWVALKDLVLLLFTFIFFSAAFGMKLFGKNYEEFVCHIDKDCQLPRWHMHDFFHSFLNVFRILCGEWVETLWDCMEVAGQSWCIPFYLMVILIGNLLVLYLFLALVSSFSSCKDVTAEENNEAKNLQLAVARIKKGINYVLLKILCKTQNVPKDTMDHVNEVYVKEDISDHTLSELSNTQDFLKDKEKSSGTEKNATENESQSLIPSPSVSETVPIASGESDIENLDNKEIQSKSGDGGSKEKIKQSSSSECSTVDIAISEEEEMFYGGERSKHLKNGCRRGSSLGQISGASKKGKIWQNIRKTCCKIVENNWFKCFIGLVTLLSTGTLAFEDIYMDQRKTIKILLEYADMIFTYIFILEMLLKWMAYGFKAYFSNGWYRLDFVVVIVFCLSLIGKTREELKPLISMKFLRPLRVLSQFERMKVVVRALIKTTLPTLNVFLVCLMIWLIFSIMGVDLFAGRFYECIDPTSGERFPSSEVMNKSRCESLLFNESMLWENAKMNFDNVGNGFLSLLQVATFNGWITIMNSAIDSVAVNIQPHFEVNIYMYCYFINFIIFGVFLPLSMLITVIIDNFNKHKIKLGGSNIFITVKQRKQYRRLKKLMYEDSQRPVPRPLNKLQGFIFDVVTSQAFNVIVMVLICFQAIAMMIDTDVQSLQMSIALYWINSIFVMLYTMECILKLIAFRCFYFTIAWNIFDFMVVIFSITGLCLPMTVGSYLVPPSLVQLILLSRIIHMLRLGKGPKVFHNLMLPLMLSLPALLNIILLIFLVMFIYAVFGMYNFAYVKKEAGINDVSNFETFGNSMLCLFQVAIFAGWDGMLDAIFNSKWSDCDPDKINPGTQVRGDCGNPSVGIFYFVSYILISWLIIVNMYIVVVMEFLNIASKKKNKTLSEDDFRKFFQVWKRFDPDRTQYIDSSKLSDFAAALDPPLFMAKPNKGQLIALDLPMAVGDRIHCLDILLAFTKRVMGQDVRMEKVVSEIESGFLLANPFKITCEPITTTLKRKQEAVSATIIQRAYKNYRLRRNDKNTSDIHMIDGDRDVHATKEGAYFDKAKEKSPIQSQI
Test: cryo-EM structure; β3-NaX complex co-expressed in Expi293, purified in GDN by the tags on NaX, reconstituted into POPC:POPE:POPG nanodiscs (MSP1E3D1); 25 mM HEPES pH 7.0, 200 mM NaCl; cross-linked with 0.05% glutaraldehyde before vitrification
Conditions: both partners purified

B1: human β3-subunit (auxiliary NaV channel β3) (natural protein, UniProt Q9NY72 23-215, looked up)
chain: FPVCVEVPSETEAVQGNPMKLRCISCMKREEVEATTVVEWFYRPEGGKDFLIYEYRNGHQEVESPFQGRLQWNGSKDLQDVSITVLNVTLNDSGLYTCNVSREFEFEAHRPFVKTTRLIPLRVTEEAGEDFTSVVSEIMMYILLVFLTLWLLIEMIYCYRKVSKAEEAAQENASDYLAIPSENKENSAVPVEE
notes: Untagged full-length human sodium channel auxiliary β3-subunit, cloned into a pRK vector behind a CMV promoter; The full-length cDNA was expressed; also called NaVβ3; source: Expi293 cells, co-transfected with NaX, co-purified with tagged NaX
**Q.** Does B1 bind?
**A.** Result: binds
